From paper PMC3683929

Columns and labels:
[1] = molecular target: T1, MBP-hnRNP A1 (mouse, UniProt P49312 1-320); test: EMSA
[2] = molecular target: T1, MBP-hnRNP A1; test: fluorescence polarization
[3] = molecular target: T1, MBP-hnRNP A1; test: FP/EMSA

T1 sequence (P49312 whole entry): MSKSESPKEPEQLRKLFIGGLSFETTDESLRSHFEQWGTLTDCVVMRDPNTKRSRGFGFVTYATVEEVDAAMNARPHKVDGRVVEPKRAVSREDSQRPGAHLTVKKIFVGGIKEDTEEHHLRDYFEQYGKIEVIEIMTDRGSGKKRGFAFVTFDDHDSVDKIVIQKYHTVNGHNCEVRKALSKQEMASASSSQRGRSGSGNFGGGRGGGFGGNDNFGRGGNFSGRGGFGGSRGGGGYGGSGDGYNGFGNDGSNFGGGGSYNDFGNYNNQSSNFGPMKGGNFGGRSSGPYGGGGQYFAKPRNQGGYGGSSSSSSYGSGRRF

| Binder | Kd [1] [nM] | Kd [2] [nM] | binding result [1] | binding result [3] |
| --- | --- | --- | --- | --- |
| GGAGGUAGGUGGCGG (structured_RNA) [Mag 15 nt G7G8 (G8G9 in Table 1)] | 70 ± 21 | 60 ± 18 |  |  |
| AGGUAAGUUC (ssRNA) [Mag 10 nt G4A] |  |  | no binding |  |
| GGAGGUAGGUAACGG (structured_RNA) [Mag 15 nt A7A8 (A8A9 in Table 1)] | 106 ± 23 | 21 ± 4 |  |  |
| AGGUAGGUUC (ssRNA) [Mag 10 nt wt (-2 to 8)] | 145 ± 12 |  |  |  |
| GAGCCCCAGGAGGUAGGUUCCGGGGGCCU (structured_RNA) [Mag exon 12 5'ss rat wt 29 nt (-12 to 17)] |  |  |  | no binding |
| GGAGGUAGGUUUCGG (structured_RNA) [Mag 15 nt U7U8 (U8U9 in Table 1)] | 171 ± 48 | 92 ± 37 |  |  |
